In paper PMC6139261 (Archives of biochemistry and biophysics, 2018):
The star is where a group is joined. FITC = O=C1OC2(c3ccc(O)cc3Oc3cc(O)ccc32)c2ccc(NC(=S)*)cc21

How the values were obtained:
[1] = molecular target: substrate-trapping ClpB variant (E279Q/E678Q) (Escherichia coli, UniProt P63284, E279Q/E678Q); assay type: binding; settings: ClpB with ATP, buffer A, room temperature
[2] = molecular target: ATP-hydrolysis deficient substrate-trapping ClpB variant (E279Q/E678Q) (Escherichia coli, UniProt P63284 1-857, E279Q | E678Q); experiment: fluorescence polarisation

Molecule | anisotropy change of free label with ClpB [1] | Kd [2]
O=C1OC2(c3ccc(O)cc3Oc3cc(O)ccc32)c2ccccc21 [fluorescein] | did not affect the anisotropy | –
{FITC}-QQFRNRRKLTFLKKLGWFNQ-NH2 [peptide B2B] | – | 11.5 ± 0.52 nM
{FITC}-AHAWQHQGKTLFISRKTYRI-NH2 [peptide B1] | – | 46.8 ± 1.5 nM
{FITC}-KLFFNLR-NH2 [peptide B2T1] | – | 912 ± 231 nM
{FITC}-RLGWFNQ-NH2 [peptide B2T2] | – | > 1000 nM
FHAWQHQGKTLAISRKTYRI (FITC on the N-terminus; C-terminal amide) [peptide B1N] | – | 7.26 ± 0.32 nM
{FITC}-KTLFISR-NH2 [peptide B1T] | – | 329 ± 39 nM
{FITC}-QLWQGQFRNLRRKTFFKKLN-NH2 [peptide B2N] | – | 17.5 ± 0.92 nM
{FITC}-QGQFRNLRRKQLWTFFLNKK-NH2 [peptide B2A] | – | 10.2 ± 0.8 nM
